Laboratory results as given in the supplement of paper PMC5998384.

Experiments:
HeLa Kyoto [1] = experiment: solubility in G1/S (NP-40 vs SDS abundance) (log2 ratio); higher = more soluble; settings: cell cycle stage: G1/S
HeLa Kyoto [2] = experiment: solubility change mitosis vs G1/S (difference of NP-40 vs SDS log2 ratios) (log2 ratio difference); higher = more soluble in mitosis
HeLa Kyoto [3] = experiment: melting temperature (median over replicates), in situ; higher = more thermally stable
HeLa Kyoto [4] = experiment: thermal stability score vs G1/S (z-score of summed log2 fold changes over temperatures); higher = more thermally stable than in G1/S
[5] = cell cycle stage: early G1 (4.5 h after nocodazole release)
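For melting temperature (median over replicates), in situ in this document: HeLa Kyoto cells synchronized by double thymidine or nocodazole block, proteins quantified by TMT10plex mass spectrometry, three independent biological replicates.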
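For solubility change mitosis vs G1/S (difference of NP-40 vs SDS log2 ratios) in this document: synchronized HeLa Kyoto cells (double thymidine block for G1/S, nocodazole release for mitosis), protein amounts in NP-40 versus SDS lysates quantified by mass spectrometry, three biological replicates.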
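For solubility in G1/S (NP-40 vs SDS abundance) in this document: HeLa Kyoto cells arrested at G1/S by double thymidine block, proteins quantified by TMT10plex mass spectrometry in mild NP-40 versus SDS extracts, three biological replicates.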
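For thermal stability score vs G1/S (z-score of summed log2 fold changes over temperatures) in this document: synchronized HeLa Kyoto cells, proteins quantified by TMT10plex mass spectrometry, three biological replicates, mitosis taken 0.5 h after nocodazole release, G1/S directly after double thymidine block.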

Substance	solubility in G1/S (log2) (HeLa Kyoto [1])	solubility change mitosis (log2) (HeLa Kyoto [2])	melting temperature (HeLa Kyoto [3]; cell cycle stage: G1/S)	melting temperature (HeLa Kyoto [3]; cell cycle stage: mitosis)	thermal stability score (HeLa Kyoto [4]; [5])	thermal stability score (HeLa Kyoto [4]; cell cycle stage: mitosis)
MRSAAAAPRSPAVATESRRFAAARWPGWRSLQRPARRSGRGGGGAAPGPYPSAAPPPPGPGPPPSRQSSPPSASDCFGSNGNGGGAFRPGSRRLLGLGGPPRPFVVLLLPLASPGAPPAAPTRASPLGARASPPRSGVSLARPAPGCPRPACEPVYGPLTMSLKPQQQQQQQQQQQQQQQQQQQQQQQPPPAAANVRKPGGSGLLASPAAAPSPSSSSVSSSSATAPSSVVAATSGGGRPGLGRGRNSNKGLPQSTISFDGIYANMRMVHILTSVVGSKCEVQVKNGGIYEGVFKTYSPKCDLVLDAAHEKSTESSSGPKREEIMESILFKCSDFVVVQFKDMDSSYAKRDAFTDSAISAKVNGEHKEKDLEPWDAGELTANEELEALENDVSNGWDPNDMFRYNEENYGVVSTYDSSLSSYTVPLERDNSEEFLKREARANQLAEEIESSAQYKARVALENDDRSEEEKYTAVQRNSSEREGHSINTRENKYIPPGQRNREVISWGSGRQNSPRMGQPGSGSMPSRSTSHTSDFNPNSGSDQRVVNGGVPWPSPCPSPSSRPPSRYQSGPNSLPPRAATPTRPPSRPPSRPSRPPSHPSAHGSPAPVSTMPKRMSSEGPPRMSPKAQRHPRNHRVSAGRGSISSGLEFVSHNPPSEAATPPVARTSPSGGTWSSVVSGVPRLSPKTHRPRSPRQNSIGNTPSGPVLASPQAGIIPTEAVAMPIPAASPTPASPASNRAVTPSSEAKDSRLQDQRQNSPAGNKENIKPNETSPSFSKAENKGISPVVSEHRKQIDDLKKFKNDFRLQPSSTSESMDQLLNKNREGEKSRDLIKDKIEPSAKDSFIENSSSNCTSGSSKPNSPSISPSILSNTEHKRGPEVTSQGVQTSSPACKQEKDDKEEKKDAAEQVRKSTLNPNAKEFNPRSFSQPKPSTTPTSPRPQAQPSPSMVGHQQPTPVYTQPVCFAPNMMYPVPVSPGVQPLYPIPMTPMPVNQAKTYRAVPNMPQQRQDQHHQSAMMHPASAAGPPIAATPPAYSTQYVAYSPQQFPNQPLVQHVPHYQSQHPHVYSPVIQGNARMMAPPTHAQPGLVSSSATQYGAHEQTHAMYACPKLPYNKETSPSFYFAISTGSLAQQYAHPNATLHPHTPHPQPSATPTGQQQSQHGGSHPAPSPVQHHQHQAAQALHLASPQQQSAIYHAGLAPTPPSMTPASNTQSPQNSFPAAQQTVFTIHPSHVQPAYTNPPHMAHVPQAHVQSGMVPSHPTAHAPMMLMTTQPPGGPQAALAQSALQPIPVSTTAHFPYMTHPSVQAHHQQQL [ATXN2]	-0.281	0.278	52.5 °C	51.9 °C	-0.37	-1.31
MGFLQLLVVAVLASEHRVAGAAEVFGNSSEGLIEFSVGKFRYFELNRPFPEEAILHDISSNVTFLIFQIHSQYQNTTVSFSPTLLSNSSETGTASGLVFILRPEQSTCTWYLGTSGIQPVQNMAILLSYSERDPVPGGCNLEFDLDIDPNIYLEYNFFETTIKFAPANLGYARGVDPPPCDAGTDQDSRWRLQYDVYQYFLPENDLTEEMLLKHLQRMVSVPQVKASALKVVTLTANDKTSVSFSSLPGQGVIYNVIVWDPFLNTSAAYIPAHTYACSFEAGEGSCASLGRVSSKVFFTLFALLGFFICFFGHRFWKTELFFIGFIIMGFFFYILITRLTPIKYDVNLILTAVTGSVGGMFLVAVWWRFGILSICMLCVGLVLGFLISSVTFFTPLGNLKIFHDDGVFWVTFSCIAILIPVVFMGCLRILNILTCGVIGSYSVVLAIDSYWSTSLSYITLNVLKRALNKDFHRAFTNVPFQTNDFIILAVWGMLAVSGITLQIRRERGRPFFPPHPYKLWKQERERRVTNILDPSYHIPPLRERLYGRLTQIKGLFQKEQPAGERTPLLL [TM7SF3]	-0.147	-0.244	56.8 °C	55.3 °C	-2.81	-4.36
MMAAVPPGLEPWNRVRIPKAGNRSAVTVQNPGAALDLCIAAVIKECHLVILSLKSQTLDAETDVLCAVLYSNHNRMGRHKPHLALKQVEQCLKRLKNMNLEGSIQDLFELFSSNENQPLTTKVCVVPSQPVVELVLMKVLGACKLLLRLLDCCCKTFLLTVKHLGLQEFIILNLVMVGLVSRLWVLYKGVLKRLILLYEPLFGLLQEVARIQPMPYFKDFTFPSDITEFLGQPYFEAFKKKMPIAFAAKGINKLLNKLFLINEQSPRASEETLLGISKKAKQMKINVQNNVDLGQPVKNKRVFKEESSEFDVRAFCNQLKHKATQETSFDFKCSQSRLKTTKYSSQKVIGTPHAKSFVQRFREAESFTQLSEEIQMAVVWCRSKKLKAQAIFLGNKLLKSNRLKHLEAQGTSLPKKLECIKTSICNHLLRGSGIKTSKHHLRQRRSQNKFLRRQRKPQRKLQSTLLREIQQFSQGTRKSATDTSAKWRLSHCTVHRTDLYPNSKQLLNSGVSMPVIQTKEKMIHENLRGIHENETDSWTVMQINKNSTSGTIKETDDIDDIFALMGV [NEPRO]	-0.993	0.574	49.7 °C	50.3 °C	-0.703	-1.65
MSDFDSNPFADPDLNNPFKDPSVTQVTRNVPPGLDEYNPFSDSRTPPPGGVKMPNVPNTQPAIMKPTEEHPAYTQIAKEHALAQAELLKRQEELERKAAELDRREREMQNLSQHGRKNNWPPLPSNFPVGPCFYQDFSVDIPVEFQKTVKLMYYLWMFHAVTLFLNIFGCLAWFCVDSARAVDFGLSILWFLLFTPCSFVCWYRPLYGAFRSDSSFRFFVFFFVYICQFAVHVLQAAGFHNWGNCGWISSLTGLNQNIPVGIMMIIIAALFTASAVISLVMFKKVHGLYRTTGASFEKAQQEFATGVMSNKTVQTAAANAASTAASSAAQNAFKGNQI [SCAMP1]	0.0609	-0.114	55.8 °C	56 °C	-0.608	-0.121
MACAAVMIPGLLRCSVGAIRIEAASLRLTLSTLRHLTLTSIMKSKRKTDHMERTASVLRREIVSAAKVCGAASESPSVKSLRLLVADQDFSFKAGQWVDFFIPGVSVVGGFSICSSPRLLEQERVIELAVKYTNHPPALWVHNTCTLDCEVAVRVGGEFFFDPQPADASRNLVLIAGGVGINPLLSILRHAADLLREQANKRNGYEIGTIKLFYSAKNTSELLFKKNILDLVNEFPEKIACSLHVTKQTTQINAELKPYITEGRITEKEIRDHISKETLFYICGPPPMTDFFSKQLENNHVPKEHICFEKWW [OXNAD1]	-0.0285	-0.0113	53.9 °C	54.7 °C	-0.605	-0.938
MPGFDYKFLEKPKRRLLCPLCGKPMREPVQVSTCGHRFCDTCLQEFLSEGVFKCPEDQLPLDYAKIYPDPELEVQVLGLPIRCIHSEEGCRWSGPLRHLQGHLNTCSFNVIPCPNRCPMKLSRRDLPAHLQHDCPKRRLKCEFCGCDFSGEAYESHEGMCPQESVYCENKCGARMMRRLLAQHATSECPKRTQPCTYCTKEFVFDTIQSHQYQCPRLPVACPNQCGVGTVAREDLPGHLKDSCNTALVLCPFKDSGCKHRCPKLAMARHVEESVKPHLAMMCALVSRQRQELQELRRELEELSVGSDGVLIWKIGSYGRRLQEAKAKPNLECFSPAFYTHKYGYKLQVSAFLNGNGSGEGTHLSLYIRVLPGAFDNLLEWPFARRVTFSLLDQSDPGLAKPQHVTETFHPDPNWKNFQKPGTWRGSLDESSLGFGYPKFISHQDIRKRNYVRDDAVFIRAAVELPRKILS [TRAF4]	-0.439	0.124	51.3 °C	51.8 °C	0.266	0.814
INADL	-0.0157	-0.068	47.4 °C	49.2 °C	0.59	1.68
MTDGILGKAATMEIPIHGNGEARQLPEDDGLEQDLQQVMVSGPNLNETSIVSGGYGGSGDGLIPTGSGRHPSHSTTPSGPGDEVARGIAGEKFDIVKKWGINTYKCTKQLLSERFGRGSRTVDLELELQIELLRETKRKYESVLQLGRALTAHLYSLLQTQHALGDAFADLSQKSPELQEEFGYNAETQKLLCKNGETLLGAVNFFVSSINTLVTKTMEDTLMTVKQYEAARLEYDAYRTDLEELSLGPRDAGTRGRLESAQATFQAHRDKYEKLRGDVAIKLKFLEENKIKVMHKQLLLFHNAVSAYFAGNQKQLEQTLQQFNIKLRPPGAEKPSWLEEQ [ARFIP2]	0.602	0.0365	51.1 °C	50.9 °C	-0.945	-2.87
MASCASIDIEDATQHLRDILKLDRPAGGPSAESPRPSSAYNGDLNGLLVPDPLCSGDSTSANKTGLRTMPPINLQEKQVICLSGDDSSTCIGILAKEVEIVASSDSSISSKARGSNKVKIQPVAKYDWEQKYYYGNLIAVSNSFLAYAIRAANNGSAMVRVISVSTSERTLLKGFTGSVADLAFAHLNSPQLACLDEAGNLFVWRLALVNGKIQEEILVHIRQPEGTPLNHFRRIIWCPFIPEESEDCCEESSPTVALLHEDRAEVWDLDMLRSSHSTWPVDVSQIKQGFIVVKGHSTCLSEGALSPDGTVLATASHDGYVKFWQIYIEGQDEPRCLHEWKPHDGRPLSCLLFCDNHKKQDPDVPFWRFLITGADQNRELKMWCTVSWTCLQTIRFSPDIFSSVSVPPSLKVCLDLSAEYLILSDVQRKVLYVMELLQNQEEGHACFSSISEFLLTHPVLSFGIQVVSRCRLRHTEVLPAEEENDSLGADGTHGAGAMESAAGVLIKLFCVHTKALQDVQIRFQPQLNPDVVAPLPTHTAHEDFTFGESRPELGSEGLGSAAHGSQPDLRRIVELPAPADFLSLSSETKPKLMTPDAFMTPSASLQQITASPSSSSSGSSSSSSSSSSSLTAVSAMSSTSAVDPSLTRPPEELTLSPKLQLDGSLTMSSSGSLQASPRGLLPGLLPAPADKLTPKGPGQVPTATSALSLELQEVEPLGLPQASPSRTRSPDVISSASTALSQDIPEIASEALSRGFGSSAPEGLEPDSMASAASALHLLSPRPRPGPELGPQLGLDGGPGDGDRHNTPSLLEAALTQEASTPDSQVWPTAPDITRETCSTLAESPRNGLQEKHKSLAFHRPPYHLLQQRDSQDASAEQSDHDDEVASLASASGGFGTKVPAPRLPAKDWKTKGSPRTSPKLKRKSKKDDGDAAMGSRLTEHQVAEPPEDWPALIWQQQRELAELRHSQEELLQRLCTQLEGLQSTVTGHVERALETRHEQEQRRLERALAEGQQRGGQLQEQLTQQLSQALSSAVAGRLERSIRDEIKKTVPPCVSRSLEPMAGQLSNSVATKLTAVEGSMKENISKLLKSKNLTDAIARAAADTLQGPMQAAYREAFQSVVLPAFEKSCQAMFQQINDSFRLGTQEYLQQLESHMKSRKAREQEAREPVLAQLRGLVSTLQSATEQMAATVAGSVRAEVQHQLHVAVGSLQESILAQVQRIVKGEVSVALKEQQAAVTSSIMQAMRSAAGTPVPSAHLDCQAQQAHILQLLQQGHLNQAFQQALTAADLNLVLYVCETVDPAQVFGQPPCPLSQPVLLSLIQQLASDLGTRTDLKLSYLEEAVMHLDHSDPITRDHMGSVMAQVRQKLFQFLQAEPHNSLGKAARRLSLMLHGLVTPSLP [EDC4]	0.013	-0.158	49.6 °C	50.1 °C	0.116	2.4
MAGYKPVAIQTYPILGEKITQDTLYWNNYKTPVQIKEFGAVSKVDFSPQPPYNYAVTASSRIHIYGRYSQEPIKTFSRFKDTAYCATFRQDGRLLVAGSEDGGVQLFDISGRAPLRQFEGHTKAVHTVDFTADKYHVVSGADDYTVKLWDIPNSKEILTFKEHSDYVRCGCASKLNPDLFITGSYDHTVKMFDARTSESVLSVEHGQPVESVLLFPSGGLLVSAGGRYVKVWDMLKGGQLLVSLKNHHKTVTCLCLSSSGQRLLSGSLDRKVKVYSTTSYKVVHSFDYAASILSLALAHEDETIVVGMTNGILSVKHRKSEAKKESLPRRRRPAYRTFIKGKNYMKQRDDILINRPAKKHLELYDRDLKHFRISKALDRVLDPTCTIKTPEITVSIIKELNRRGVLANALAGRDEKEISHVLNFLIRNLSQPRFAPVLINAAEIIIDIYLPVIGQSPVVDKKFLLLQGLVEKEIDYQRELLETLGMMDMLFATMRRKEGTSVLEHTSDGFPENKKIES [UTP15]	-1.23	0.558	52.6 °C	50.9 °C	-0.279	-3.5
